Laboratory results published in PMC2756588.

What was measured:
Assay in all cases: SPOT array
GST = details: median of control spots 978
Fus1, P11710 = biological target: T1, Fus1, P11710; details: median of control spots 1200
T1 sequence (P11710 432-512, looked up): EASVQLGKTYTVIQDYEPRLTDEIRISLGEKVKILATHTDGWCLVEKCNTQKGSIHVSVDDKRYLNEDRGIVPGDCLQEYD

Hse1, P38753 = biological target: T2, Hse1, P38753; details: median of control spots 1727
T2 sequence (P38753 208-285, looked up): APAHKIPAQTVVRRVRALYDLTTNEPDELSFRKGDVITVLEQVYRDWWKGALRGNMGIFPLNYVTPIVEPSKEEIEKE

Cyk3, Q07533 = biological target: T3, Cyk3, Q07533; details: median of control spots 1451
T3 sequence (Q07533 1-83, looked up): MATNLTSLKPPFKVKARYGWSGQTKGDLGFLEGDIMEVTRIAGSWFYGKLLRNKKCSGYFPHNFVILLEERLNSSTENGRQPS

Hof1, Q05080 = biological target: T4, Hof1, Q05080; details: median of control spots 4086
T4 sequence (Q05080 590-669, looked up): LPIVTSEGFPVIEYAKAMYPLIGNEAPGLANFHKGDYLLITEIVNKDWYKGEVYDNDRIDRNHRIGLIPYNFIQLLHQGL

Myo5, Q04439 = biological target: T5, Myo5, Q04439; details: median of control spots 471
T5 sequence (Q04439 1072-1160, looked up): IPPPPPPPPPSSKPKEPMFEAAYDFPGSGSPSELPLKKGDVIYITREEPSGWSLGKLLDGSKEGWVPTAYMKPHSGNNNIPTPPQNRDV

Pin3, Q06449 = biological target: T6, Pin3, Q06449; details: median of control spots 2171
T6 sequence (Q06449 53-122, looked up): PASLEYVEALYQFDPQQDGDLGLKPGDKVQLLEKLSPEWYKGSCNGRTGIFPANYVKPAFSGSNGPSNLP

Bzz1-1, P38822 = biological target: T7, Bzz1-1, P38822; details: median of control spots 4446
T7 sequence (P38822 478-572, looked up): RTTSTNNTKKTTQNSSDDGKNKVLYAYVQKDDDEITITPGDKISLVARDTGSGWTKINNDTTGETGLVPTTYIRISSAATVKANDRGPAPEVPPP

Cdc25, P04821 = biological target: T8, Cdc25, P04821; details: median of control spots 969
T8 sequence (P04821 50-136, looked up): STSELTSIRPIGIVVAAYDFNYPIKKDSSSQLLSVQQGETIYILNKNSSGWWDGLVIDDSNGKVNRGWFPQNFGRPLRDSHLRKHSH

Boi1, P38041 = biological target: T9, Boi1, P38041; details: median of control spots 1162
T9 sequence (P38041 1-86, looked up): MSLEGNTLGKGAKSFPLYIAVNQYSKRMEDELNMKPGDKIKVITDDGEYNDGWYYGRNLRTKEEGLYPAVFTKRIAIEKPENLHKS

Nbp2, Q12163 = biological target: T10, Nbp2, Q12163; details: median of control spots 357
T10 sequence (Q12163 103-180, looked up): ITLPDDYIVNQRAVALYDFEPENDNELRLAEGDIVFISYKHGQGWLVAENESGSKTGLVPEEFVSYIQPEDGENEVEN

Boi2, P39969 = biological target: T11, Boi2, P39969; details: median of control spots 1161
T11 sequence (P39969 32-116, looked up): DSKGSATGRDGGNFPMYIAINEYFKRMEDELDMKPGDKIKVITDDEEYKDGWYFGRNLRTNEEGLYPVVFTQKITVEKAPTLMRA

Sla1-3, P32790 = biological target: T12, Sla1-3, P32790; details: median of control spots 5475
T12 sequence (P32790 344-424, looked up): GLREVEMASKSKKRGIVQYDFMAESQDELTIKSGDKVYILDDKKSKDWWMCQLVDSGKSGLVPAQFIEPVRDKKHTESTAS

Pex13, P80667 = biological target: T13, Pex13, P80667; details: median of control spots 1341
T13 sequence (P80667 295-386, looked up): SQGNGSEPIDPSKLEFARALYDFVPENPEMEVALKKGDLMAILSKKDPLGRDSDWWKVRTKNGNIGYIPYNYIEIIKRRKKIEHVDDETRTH

Lsb1, P53281 = biological target: T14, Lsb1, P53281; details: median of control spots 388
T14 sequence (P53281 45-122, looked up): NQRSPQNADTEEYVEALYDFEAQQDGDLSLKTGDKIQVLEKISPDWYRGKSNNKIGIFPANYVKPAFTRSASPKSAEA

Sho1, P40073 = details: median of control spots 1148
Lsb3, P43603 = biological target: T15, Lsb3, P43603; details: median of control spots 406
T15 sequence (P43603 385-451, looked up): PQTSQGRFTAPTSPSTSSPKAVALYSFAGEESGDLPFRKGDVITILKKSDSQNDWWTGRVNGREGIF

Bem1-1, P29366 = details: median of control spots 4282
Bud14, P27637 = biological target: T16, Bud14, P27637; details: median of control spots 956
T16 sequence (P27637 247-328, looked up): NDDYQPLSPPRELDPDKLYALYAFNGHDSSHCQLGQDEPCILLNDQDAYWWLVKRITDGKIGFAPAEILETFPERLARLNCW

Bzz1-2, P38822 = biological target: T17, Bzz1-2, P38822; details: median of control spots 4538
T17 sequence (P38822 568-633, looked up): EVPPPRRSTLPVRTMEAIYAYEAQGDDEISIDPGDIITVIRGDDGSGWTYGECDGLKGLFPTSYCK

Rvs167, P39743 = details: median of control spots 2707
Sla1-2, P32790 = biological target: T18, Sla1-2, P32790; details: median of control spots 712
T18 sequence (P32790 60-140, looked up): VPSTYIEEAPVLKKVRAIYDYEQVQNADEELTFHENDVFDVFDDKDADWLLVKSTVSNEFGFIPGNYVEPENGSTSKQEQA

Bem1-2, P29366 = details: median of control spots 4347
Lsb4, P32793 = biological target: T19, Lsb4, P32793; details: median of control spots 397
T19 sequence (P32793 402-468, looked up): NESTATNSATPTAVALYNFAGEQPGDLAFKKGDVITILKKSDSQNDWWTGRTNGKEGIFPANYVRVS

Abp1, P15891 = biological target: T20, Abp1, P15891; details: median of control spots 935
T20 sequence (P15891 535-592, looked up): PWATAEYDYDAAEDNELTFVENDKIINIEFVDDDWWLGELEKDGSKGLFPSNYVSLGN

Bbc1, P47068 = biological target: T21, Bbc1, P47068; details: median of control spots 796
T21 sequence (P47068 1-78, looked up): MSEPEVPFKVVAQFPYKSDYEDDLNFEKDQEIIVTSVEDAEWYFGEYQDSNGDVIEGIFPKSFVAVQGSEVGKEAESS

Myo3, P36006 = details: median of control spots 468

Chain of Bem1-2, P29366 (P29366 139-227): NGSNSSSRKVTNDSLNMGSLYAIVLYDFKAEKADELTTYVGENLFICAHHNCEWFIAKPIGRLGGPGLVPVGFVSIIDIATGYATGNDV
Chain of Rvs167, P39743 (P39743 419-482): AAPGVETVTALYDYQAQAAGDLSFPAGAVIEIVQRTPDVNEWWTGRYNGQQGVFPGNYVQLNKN
Chain of Sho1, P40073 (P40073 287-367): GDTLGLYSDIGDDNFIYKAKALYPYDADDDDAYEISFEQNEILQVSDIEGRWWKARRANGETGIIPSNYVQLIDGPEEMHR
Chain of Bem1-1, P29366 (P29366 55-141): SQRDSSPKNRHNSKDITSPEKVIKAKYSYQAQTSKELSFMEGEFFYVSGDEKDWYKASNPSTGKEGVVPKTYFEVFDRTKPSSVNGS

B1: unnamed (peptide)
chain: GKKVRPLLVLLLSRA
SPOT intensity (GST): 0 | SPOT intensity (Fus1, P11710): 4 | SPOT intensity (Hse1, P38753): 0 | SPOT intensity (Cyk3, Q07533): 0 | SPOT intensity (Hof1, Q05080): 0 | SPOT intensity (Myo5, Q04439): 1 | SPOT intensity (Pin3, Q06449): 0 | SPOT intensity (Bzz1-1, P38822): 0 | SPOT intensity (Cdc25, P04821): 132 | SPOT intensity (Boi1, P38041): 14 | SPOT intensity (Nbp2, Q12163): 10 | SPOT intensity (Boi2, P39969): 4 | SPOT intensity (Sla1-3, P32790): 0 | SPOT intensity (Pex13, P80667): 19 | SPOT intensity (Lsb1, P53281): 0 | SPOT intensity (Sho1, P40073): 51 | SPOT intensity (Lsb3, P43603): 6 | SPOT intensity (Bem1-1, P29366): 0 | SPOT intensity (Bud14, P27637): 9 | SPOT intensity (Bzz1-2, P38822): 0 | SPOT intensity (Rvs167, P39743): 0 | SPOT intensity (Sla1-2, P32790): 0 | SPOT intensity (Bem1-2, P29366): 0 | SPOT intensity (Lsb4, P32793): 2 | SPOT intensity (Abp1, P15891): 37 | SPOT intensity (Bbc1, P47068): 67 | SPOT intensity (Myo3, P36006): 7

B2: unnamed (peptide)
chain: LLIRWLILMPLVGSR
SPOT intensity (GST): 2 | SPOT intensity (Fus1, P11710): 168 | SPOT intensity (Hse1, P38753): 25 | SPOT intensity (Cyk3, Q07533): 4 | SPOT intensity (Hof1, Q05080): 12 | SPOT intensity (Myo5, Q04439): 10 | SPOT intensity (Pin3, Q06449): 47 | SPOT intensity (Bzz1-1, P38822): 3 | SPOT intensity (Cdc25, P04821): 176 | SPOT intensity (Boi1, P38041): 23 | SPOT intensity (Nbp2, Q12163): 215 | SPOT intensity (Boi2, P39969): 4 | SPOT intensity (Sla1-3, P32790): 7 | SPOT intensity (Pex13, P80667): 78 | SPOT intensity (Lsb1, P53281): 47 | SPOT intensity (Sho1, P40073): 150 | SPOT intensity (Lsb3, P43603): 6 | SPOT intensity (Bem1-1, P29366): 0 | SPOT intensity (Bud14, P27637): 29 | SPOT intensity (Bzz1-2, P38822): 7 | SPOT intensity (Rvs167, P39743): 1 | SPOT intensity (Sla1-2, P32790): 3 | SPOT intensity (Bem1-2, P29366): 4 | SPOT intensity (Lsb4, P32793): 25 | SPOT intensity (Abp1, P15891): 166 | SPOT intensity (Bbc1, P47068): 339 | SPOT intensity (Myo3, P36006): 34

B3: unnamed (peptide)
chain: FHLNPKRSAVLYDRP
SPOT intensity (GST): 5 | SPOT intensity (Fus1, P11710): 309 | SPOT intensity (Hse1, P38753): 40 | SPOT intensity (Cyk3, Q07533): 0 | SPOT intensity (Hof1, Q05080): 83 | SPOT intensity (Myo5, Q04439): 1 | SPOT intensity (Pin3, Q06449): 32 | SPOT intensity (Bzz1-1, P38822): 3 | SPOT intensity (Cdc25, P04821): 25 | SPOT intensity (Boi1, P38041): 0 | SPOT intensity (Nbp2, Q12163): 0 | SPOT intensity (Boi2, P39969): 0 | SPOT intensity (Sla1-3, P32790): 140 | SPOT intensity (Pex13, P80667): 35 | SPOT intensity (Lsb1, P53281): 0 | SPOT intensity (Sho1, P40073): 35 | SPOT intensity (Lsb3, P43603): 0 | SPOT intensity (Bem1-1, P29366): 245 | SPOT intensity (Bud14, P27637): 9 | SPOT intensity (Bzz1-2, P38822): 38 | SPOT intensity (Rvs167, P39743): 7 | SPOT intensity (Sla1-2, P32790): 0 | SPOT intensity (Bem1-2, P29366): 308 | SPOT intensity (Lsb4, P32793): 0 | SPOT intensity (Abp1, P15891): 24 | SPOT intensity (Bbc1, P47068): 10 | SPOT intensity (Myo3, P36006): 0
